Data taken from publication PMC9080080 (Cell Reports, 2022).

B1: XMA04 (antibody, V domains shown)
VH: EVQLVESGGGVVQPGRSLRLSCAASGFTFRTYAMHWVRQAPGKGLEWVAVMWNDGSNKYYADSVKGRFTISRDNSKNTLYLEMNSLRAEDTAVYYCAREGVAAAGSSSDAFDIWGQGTMVTVSS
VL: DIQMTQSPSSLSASVGDRVTITCRASQSISNFLNWYQQKPGKAPKLLIYAASSLQSGVPSRFSGSGSGTDFTLTISSLQPEDFATYYCQQSYSTLYSFGQGTKLEIK
B2: XMA01 (antibody, V domains shown)
VH: EVQLVESGGGLVQPGGSLRLSCSASGFTFSSYAMHWVRQAPGKGLEYVSSISSNGGSTYYADSVKGRFTISRDNSKNTLYLQMSSLRVEDAAVYYCVKHYQQQLLWGGPDVWGQGTTVTVSS
VL: DIQMTQSPVSLSASVGDRVTITCRASQSISTWLAWYQQKPGKAPKLLIYETSSLESGVPSRFSGSGSGTEFTLTISSLQPDDFATYYCQQFNSYPWTFGQGTKVEIK
B3: XMA09 (antibody, V domains shown)
VH: QVQLVQSGAEVKKPGSSVKVSCKASGGTFSSFAISWVRQAPGQGLEWMGGIIPIYGTANYAQKFQGRVTITADESTSTAYMDLSSLRSEDTAVYYCARDGSSTYYPHNWFDPWGQGTLVTVSS
VL: QSVLTQPPSVSGAPGQRVTISCTGSSSNIGSGYDVHWYQQLPGTAPKLLIYGNSNRPSGVPDRFSGSKSGTSASLAITGLQAEDEADYYCQSYDSSLSGVFGTGTKVTVL

Biological target: SARS-CoV-2 RBD protein (Severe acute respiratory syndrome …, UniProt P0DTC2)
Assay: ELISA

Row | Binder | binding result
1 | B1 | binds
2 | B2 | binds
3 | B3 | binds
